Data reported in patent publication US20100323397.

Target: T1, wild type (WT) VirD2 protein, Agrobacterium tumefaciens str. C58 (UniProt P18592)
T1 sequence: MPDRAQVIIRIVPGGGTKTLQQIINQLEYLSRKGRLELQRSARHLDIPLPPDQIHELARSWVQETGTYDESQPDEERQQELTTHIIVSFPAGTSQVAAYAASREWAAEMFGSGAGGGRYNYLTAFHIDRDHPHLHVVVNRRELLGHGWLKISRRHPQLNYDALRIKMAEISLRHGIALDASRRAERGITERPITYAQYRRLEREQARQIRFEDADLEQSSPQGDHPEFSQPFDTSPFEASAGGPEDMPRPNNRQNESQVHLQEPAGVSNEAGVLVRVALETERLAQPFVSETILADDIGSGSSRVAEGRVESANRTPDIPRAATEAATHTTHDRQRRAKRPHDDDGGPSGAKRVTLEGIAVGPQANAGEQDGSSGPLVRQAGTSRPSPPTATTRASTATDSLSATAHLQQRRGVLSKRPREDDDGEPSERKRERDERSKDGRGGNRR

plant caspase (putative subtilisin-like (serine) protease, PSLP) from tobacco
Western (immunoblotting) analysis of degradation by plant caspase: degradation of wild type (WT) VirD2 protein by plant caspase (lane 2)
